In experiment [1] the target is T1, recombinant mouse LRP6His chimera (mouse, UniProt O88572 20-1370).
T1 construct: extracellular domain; not shown: His tag
T1 sequence (looked up): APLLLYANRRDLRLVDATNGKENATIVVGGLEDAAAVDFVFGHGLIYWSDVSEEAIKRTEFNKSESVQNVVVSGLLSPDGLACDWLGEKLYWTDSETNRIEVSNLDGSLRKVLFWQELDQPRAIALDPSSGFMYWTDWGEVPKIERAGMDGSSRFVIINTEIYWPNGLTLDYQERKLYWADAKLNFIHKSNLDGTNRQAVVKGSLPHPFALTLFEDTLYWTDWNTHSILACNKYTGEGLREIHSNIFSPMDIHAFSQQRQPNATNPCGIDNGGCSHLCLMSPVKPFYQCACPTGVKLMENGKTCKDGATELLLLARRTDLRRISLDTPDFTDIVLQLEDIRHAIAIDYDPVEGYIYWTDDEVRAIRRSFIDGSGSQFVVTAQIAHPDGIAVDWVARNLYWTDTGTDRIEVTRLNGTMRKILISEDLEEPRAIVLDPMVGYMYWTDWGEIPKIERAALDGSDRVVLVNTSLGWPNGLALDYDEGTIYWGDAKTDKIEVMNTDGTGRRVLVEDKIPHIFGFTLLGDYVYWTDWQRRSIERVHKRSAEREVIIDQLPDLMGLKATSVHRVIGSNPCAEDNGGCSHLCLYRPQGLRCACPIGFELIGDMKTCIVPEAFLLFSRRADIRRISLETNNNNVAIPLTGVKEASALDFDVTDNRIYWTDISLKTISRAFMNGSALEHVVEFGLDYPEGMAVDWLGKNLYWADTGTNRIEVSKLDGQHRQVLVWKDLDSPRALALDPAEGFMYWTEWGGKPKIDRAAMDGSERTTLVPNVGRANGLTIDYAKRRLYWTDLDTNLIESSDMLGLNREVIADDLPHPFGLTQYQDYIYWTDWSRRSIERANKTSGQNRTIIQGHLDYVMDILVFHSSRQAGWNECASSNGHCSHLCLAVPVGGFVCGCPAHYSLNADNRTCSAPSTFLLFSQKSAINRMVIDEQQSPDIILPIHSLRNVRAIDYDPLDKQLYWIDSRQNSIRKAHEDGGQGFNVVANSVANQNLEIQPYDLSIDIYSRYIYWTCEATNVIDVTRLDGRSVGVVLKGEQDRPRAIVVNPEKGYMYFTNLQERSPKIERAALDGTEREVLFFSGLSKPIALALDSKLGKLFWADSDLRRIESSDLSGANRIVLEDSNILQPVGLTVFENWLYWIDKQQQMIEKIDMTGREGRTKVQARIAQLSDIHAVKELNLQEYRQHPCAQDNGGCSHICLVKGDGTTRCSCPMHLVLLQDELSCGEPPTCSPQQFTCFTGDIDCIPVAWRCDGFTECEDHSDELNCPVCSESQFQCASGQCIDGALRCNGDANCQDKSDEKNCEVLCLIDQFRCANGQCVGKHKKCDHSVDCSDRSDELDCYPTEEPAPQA
The experiment can be described thus: single-point ELISA, IgG1 on coated antigen. How it is done: (§1) FIGS. 1a and 1b show LRP six antibodies. (A) The amino acid sequences of the complementarity determining regions (CDR) of the heavy (H) and the light (L) chains are presented. The antibodies were grouped into unique epitopes as determined by competitive ELISAs. (B) Single-point ELISAs were performed on 96-well Maxisorb immune plates coated with the […] of mouse LRP5, mouse LRP6 and human LRP6 chimeras. The plates were incubated with the purified Fab or IgG1 at the concentrations indicated followed by incubation with horseradish peroxidase (HRP)-conjugated anti-kappa antibody. The wells were washed eight times followed by incubation with 3,3′,5,5′-tetramethylbenzidine/H₂O₂ peroxidase (TMB) substrate for 5-10 min. The reaction was stopped by adding one M H₃PO₄ and the absorbance was measured spectrometrically at 450 nm in a microtiter plate reader.
(§2) The full length IgG1s were purified and a single-point ELISA was done to determine the specificity of the antibodies. […] A multipoint competitive ELISA was used to determine the relative affinities of the antibodies to the recombinant antigen.

Experiment [2] deals with T2, recombinant mouse LRP5-His chimera (mouse, UniProt Q91VN0 31-1383).
T2 construct: extracellular domain; not shown: His tag
T2 sequence (looked up): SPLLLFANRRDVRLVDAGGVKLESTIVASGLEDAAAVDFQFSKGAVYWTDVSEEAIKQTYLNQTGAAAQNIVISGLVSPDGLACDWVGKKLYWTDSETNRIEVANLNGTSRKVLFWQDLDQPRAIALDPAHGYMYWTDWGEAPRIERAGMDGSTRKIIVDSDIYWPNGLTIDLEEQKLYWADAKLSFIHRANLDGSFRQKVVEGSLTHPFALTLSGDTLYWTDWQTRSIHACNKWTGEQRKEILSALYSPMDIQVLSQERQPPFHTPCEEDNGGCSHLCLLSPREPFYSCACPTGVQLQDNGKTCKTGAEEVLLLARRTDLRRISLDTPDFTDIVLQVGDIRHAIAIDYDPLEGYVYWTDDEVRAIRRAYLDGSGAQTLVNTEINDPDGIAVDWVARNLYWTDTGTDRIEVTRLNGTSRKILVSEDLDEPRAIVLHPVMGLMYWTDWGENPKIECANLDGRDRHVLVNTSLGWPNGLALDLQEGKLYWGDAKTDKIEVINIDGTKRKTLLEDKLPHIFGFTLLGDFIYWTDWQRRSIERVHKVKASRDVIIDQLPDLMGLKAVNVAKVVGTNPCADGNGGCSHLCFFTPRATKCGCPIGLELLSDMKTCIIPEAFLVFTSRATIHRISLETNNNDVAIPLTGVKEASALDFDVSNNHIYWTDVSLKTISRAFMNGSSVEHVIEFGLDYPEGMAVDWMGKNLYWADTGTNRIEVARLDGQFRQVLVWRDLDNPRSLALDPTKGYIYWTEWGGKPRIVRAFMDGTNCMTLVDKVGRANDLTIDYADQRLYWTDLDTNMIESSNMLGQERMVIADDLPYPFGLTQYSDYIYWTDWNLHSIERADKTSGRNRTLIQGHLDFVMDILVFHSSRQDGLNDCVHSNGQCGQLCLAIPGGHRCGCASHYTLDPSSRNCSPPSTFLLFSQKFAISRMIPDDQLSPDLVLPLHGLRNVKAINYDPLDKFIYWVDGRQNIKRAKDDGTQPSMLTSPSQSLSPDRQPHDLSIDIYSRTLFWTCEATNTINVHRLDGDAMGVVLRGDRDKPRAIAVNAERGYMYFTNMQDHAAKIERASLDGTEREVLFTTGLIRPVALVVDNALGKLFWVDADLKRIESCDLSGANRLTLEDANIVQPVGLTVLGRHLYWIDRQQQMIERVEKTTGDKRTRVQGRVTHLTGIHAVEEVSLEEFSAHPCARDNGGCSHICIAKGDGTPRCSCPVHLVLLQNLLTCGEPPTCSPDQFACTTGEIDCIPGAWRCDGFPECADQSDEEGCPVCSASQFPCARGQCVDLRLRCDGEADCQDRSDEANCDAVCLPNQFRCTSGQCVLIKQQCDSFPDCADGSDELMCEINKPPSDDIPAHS
Kind of experiment: single-point ELISA, IgG1 on coated antigen. Here is the method: as §1, §2

Data on one molecule can be found in US20220281969A1 (ANTLERA THERAPEUTICS, published 2022).

B1: LRP6-E3 IgG1 antibody (antibody, V domains shown)
VH: EVQLVESGGGLVQPGGSLRLSCAASGFNLYYYSMHWVRQAPGKGLEWVASIYSSYGYTYYADSVKGRFTISADTSKNTAYLQMNSLRAEDTAVYYCARYAGYYYYPWAYYGWPFSGLDYWGQGTLVTVSS
VL: DIQMTQSPSSLSASVGDRVTITCRASQSVSSAVAWYQQKPGKAPKLLIYSASSLYSGVPSRFSGSRSGTDFTLTISSLQPEDFATYYCQQAGSAPYHLITFGQGTKVEIKR
notes: Tested as purified full length IgG1
Consider B1, for which the binding result in experiment [1] and in experiment [2] was “no binding” throughout.
